Experimental data as given in patent publication US20070178093A1.

Key:
[1] = molecular target: human glucocorticoid-induced tumor necrosis factor family-related receptor (TEASR) (human) (UniProt Q9Y5U5); assay: cell-based or functional assay
[2] = molecular target: fusion protein comprising the extracellular domain of hTEASR and the cytoplasmic region of Fas, expressed on Ba/F3 cells (human) (UniProt Q9Y5U5); assay: cell-based or functional assay

Substance | proliferation of CD4+ T cells in the presence of CD32/CD58/CD80 feeder L cells [1] | proliferation of CD8+ T cells in the presence of CD32 feeder L cells [1] | apoptotic cell death, 51Cr release from transfected Ba/F3 cells (in the presence of control IgG1) [2]
hTEASR-L-Ig fusion protein (from UniProt Q9UNG2 49-177) (Fc fusion) | 2.5 fold | 5.6 fold | 
human TEASR ligand (TEASR-L) (from UniProt Q9UNG2 1-177) |  |  | 23 % release
